Measured values: PMC10403316
Several values for one entry are separate records, joined by “and”; a condition that tells them apart may be missing. Equal entries are not always repeated.

What was measured:
[1] = target: human UBR5 E3 ubiquitin ligase, full length, with an N-terminal FLAG tag (human) (UniProt O95071); assay: SEC; conditions: remark: other sources report otherwise
[2] = target: human UBR5 E3 ubiquitin ligase, full length, with an N-terminal FLAG tag (human) (UniProt O95071); assay: cryo-EM structure; conditions: remark: other sources report otherwise

Q: What does the source list for “human UBR5 E3 ubiquitin ligase, full length, with an N-terminal FLAG tag, O95071 1-2799”?
A: stoichiometry N [1]: 2 and 4; stoichiometry N [2]: 2
